Assay results published in paper PMC6443809, “Integrin activation by the lipid molecule 25-hydroxycholesterol induces a proinflammatory response” (Nature Communications, 2019).

Key:
[1] = target: T1, αvβ3 integrin (Homo sapiens, UniProt P05106+P06756); test: SPR (Biacore […], immobilized αvβ[…]); also 3H-25HC binding with fractalkine-CD competition and biotin-25HC pull-down
T1 construct: gene ITGAV; Purified human αvβ3 integrin protein; with integrin αv subunit (ITGAV)

[2] = target: purified human αvβ3 integrin protein (human) (UniProt P06756); test: radioligand binding; modified ELISA-type competitive assay: αvβ3 integrin coated on 96-well plate (200 ng/well in PBS with 1 mM MnCl2, 16 h, 4 °C); fractalkine-CD (1000 ng/well in HEPES-Tyrodes buffer) or water added 2 h at room temperature, washed; then 3H-25HC in PBS/0.5% BSA 16 h at 4 °C; bound radioactivity counted
[3] = target: collagen-I (Homo sapiens) (UniProt P02452); test: SPR; settings: cited from earlier work
[4] = target: phospholipase A2 (Homo sapiens) (UniProt P14555); test: SPR; settings: cited from earlier work
[5] = target: IGF1 (Homo sapiens) (UniProt P05019); test: SPR; settings: cited from earlier work
[6] = target: vitronectin (Homo sapiens) (UniProt P04004); test: SPR; settings: cited from earlier work

In the case of C[C@H](CCCC(C)(C)O)[C@H]1CC[C@H]2[C@@H]3CC=C4C[C@@H](O)CC[C@]4(C)[C@H]3CC[C@]12C [25HC, 25-hydroxycholesterol], the Kd [1] is reported as 10.9 nM.
In the case of “purified chemokine domain (CD) of recombinant human fractalkine protein (from UniProt P78423 25-397) (domain or fragment)”, the loss of 3H-25HC binding to immobilised αvβ3 integrin after pre-incubation with fractalkine-CD [2] is reported as greater than 60%.
In the case of α1β1 integrin (from UniProt P56199), the Kd [3] is listed as 24 nM.
In the case of αvβ3 integrin (from UniProt P06756), the Kd [4] is given as 211 nM, the Kd [5] is given as 31 nM and the Kd [6] is given as 64 nM.
